Data on 1 molecule can be found in patent publication US20210213055A1 (Stanford University, published 2021).

Ends that are not written are not given here.

One assay addresses T1, recombinant Siglec5-Fc (human, UniProt O15389 17-434, limits assumed).
T1 construct: Bought reagent; not shown: human Fc
T1 sequence (looked up): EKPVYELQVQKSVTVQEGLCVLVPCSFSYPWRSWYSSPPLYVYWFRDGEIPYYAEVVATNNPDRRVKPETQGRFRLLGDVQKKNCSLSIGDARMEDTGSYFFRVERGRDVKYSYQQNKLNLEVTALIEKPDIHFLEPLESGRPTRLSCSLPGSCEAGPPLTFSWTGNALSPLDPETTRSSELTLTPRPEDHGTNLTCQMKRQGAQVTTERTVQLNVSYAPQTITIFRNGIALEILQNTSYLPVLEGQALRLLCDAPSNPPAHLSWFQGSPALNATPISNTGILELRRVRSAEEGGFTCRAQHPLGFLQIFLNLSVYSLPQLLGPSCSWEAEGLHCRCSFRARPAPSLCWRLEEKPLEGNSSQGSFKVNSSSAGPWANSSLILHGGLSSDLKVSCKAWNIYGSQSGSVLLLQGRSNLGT
Briefly: flow cytometry, Fc-fusion on MCF-7 cells, anti-human Fc detection. The method, then:
Siglec10 has been reported to interact with the highly sialylated form of CD24. […] Indeed, we observed that CD24 deletion alone is insufficient to completely abrogate Siglec-10-Fc binding in the presence of surface sialylation (FIG. 15a,b).
Neuraminidase treatment and recombinant Siglec binding assay. MCF-7 cells were treated with either neuraminidase (from Vibrio cholerae, Roche) (1×10⁶ cells/100 U/mL) or neuraminidase that was heat inactivated for 15 min at 95° C. prior to incubation for 1 h at 37° C. in serum-free medium, after which reactions were quenched with serum prior to analysis. Recombinant Siglecs (10, 5, and 9) were purchased as human Fc-fusion proteins from R&D Systems. Binding of recombinant Siglecs versus human IgG1 control was assayed at a concentration of 1×10⁵ cells/1 mg/mL at 37° C. for 1 h, in the absence of EDTA. Cells were stained with a fluorescently-conjugated anti-human Fc antibody (Biolegend) to enable the measurement of recombinant Siglec binding by flow cytometry.
In general terms: In flow cytometry, cells or beads pass a laser one at a time.

Assay [1] addresses T2, Siglec-10 expressed on human donor-derived macrophages (human, UniProt Q96LC7 17-697).
T2 sequence (looked up): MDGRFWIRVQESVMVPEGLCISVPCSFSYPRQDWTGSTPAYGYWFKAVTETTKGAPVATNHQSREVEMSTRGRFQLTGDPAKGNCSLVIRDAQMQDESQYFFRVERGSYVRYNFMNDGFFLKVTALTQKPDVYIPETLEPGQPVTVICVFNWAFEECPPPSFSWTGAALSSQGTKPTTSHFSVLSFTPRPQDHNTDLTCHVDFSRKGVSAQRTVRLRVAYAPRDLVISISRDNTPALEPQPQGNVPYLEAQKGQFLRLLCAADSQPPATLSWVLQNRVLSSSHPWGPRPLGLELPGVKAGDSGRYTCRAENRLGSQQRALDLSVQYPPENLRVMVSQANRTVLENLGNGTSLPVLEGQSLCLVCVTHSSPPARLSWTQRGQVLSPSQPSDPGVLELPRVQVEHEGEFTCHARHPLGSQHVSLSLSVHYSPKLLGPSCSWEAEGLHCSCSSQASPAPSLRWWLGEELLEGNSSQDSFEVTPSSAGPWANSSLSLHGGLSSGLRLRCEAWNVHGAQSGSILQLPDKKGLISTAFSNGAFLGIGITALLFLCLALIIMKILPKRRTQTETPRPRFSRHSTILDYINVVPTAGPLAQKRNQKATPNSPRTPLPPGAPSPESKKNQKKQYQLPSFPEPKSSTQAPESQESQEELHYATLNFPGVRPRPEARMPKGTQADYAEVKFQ
Briefly: cell-based or functional assay.

B1: CD24 expressed on human cancer cells (MCF-7 and other CD24+ cells) (ligand, UniProt P25063 27-59, looked up)
chain: SETTTGTSSNSSQSTSNSGLAPNPTNATTKAAG
modifications: also: heavily glycosylated, sialylated, GPI-anchored
notes: whole, on cells; also called Small Cell Lung Carcinoma Cluster 4 Antigen
On to B1, for which the binding result in the assay with recombinant Siglec5-Fc is listed as “no binding (tested: 1×10^5 cells/1 mg/mL)”. The “phagocytosis of CD24-expressing human tumors” value in assay [1] is no more than 13 fold.
